Columns and labels:
[1] = target: T1, M3 E8K K96E
T1 chain: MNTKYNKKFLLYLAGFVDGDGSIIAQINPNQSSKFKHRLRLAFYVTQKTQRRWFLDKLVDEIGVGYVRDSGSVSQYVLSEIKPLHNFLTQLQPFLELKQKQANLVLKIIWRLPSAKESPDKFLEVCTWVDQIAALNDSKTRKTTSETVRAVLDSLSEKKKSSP

[2] = target: T2, R51D RAG1.10.3 cutter (M3 R51D)
T2 chain: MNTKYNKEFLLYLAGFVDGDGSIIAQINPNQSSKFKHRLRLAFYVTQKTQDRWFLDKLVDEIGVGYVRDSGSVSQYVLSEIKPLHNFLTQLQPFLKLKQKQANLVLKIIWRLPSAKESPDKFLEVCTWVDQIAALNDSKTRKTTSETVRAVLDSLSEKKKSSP

[3] = target: T3, M3 K7E E61R
T3 chain: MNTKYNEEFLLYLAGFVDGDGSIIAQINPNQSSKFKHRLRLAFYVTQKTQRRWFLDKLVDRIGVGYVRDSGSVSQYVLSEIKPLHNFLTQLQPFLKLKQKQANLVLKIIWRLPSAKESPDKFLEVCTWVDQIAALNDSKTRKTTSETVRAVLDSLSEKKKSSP

[4] = target: T4, M3 K7E K96E
T4 chain: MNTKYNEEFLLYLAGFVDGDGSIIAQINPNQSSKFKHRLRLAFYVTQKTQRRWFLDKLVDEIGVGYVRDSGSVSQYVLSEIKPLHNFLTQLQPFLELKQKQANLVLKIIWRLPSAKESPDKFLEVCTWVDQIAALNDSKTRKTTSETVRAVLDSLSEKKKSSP

[5] = target: T5, D137R RAG1.10.3 cutter (M3 D137R)
T5 chain: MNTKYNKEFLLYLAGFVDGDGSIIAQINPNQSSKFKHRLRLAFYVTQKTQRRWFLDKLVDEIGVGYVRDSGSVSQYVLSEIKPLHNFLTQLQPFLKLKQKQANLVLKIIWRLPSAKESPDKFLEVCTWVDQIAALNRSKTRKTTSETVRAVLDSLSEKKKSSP

[6] = target: T6, M3 E8K E61R
T6 chain: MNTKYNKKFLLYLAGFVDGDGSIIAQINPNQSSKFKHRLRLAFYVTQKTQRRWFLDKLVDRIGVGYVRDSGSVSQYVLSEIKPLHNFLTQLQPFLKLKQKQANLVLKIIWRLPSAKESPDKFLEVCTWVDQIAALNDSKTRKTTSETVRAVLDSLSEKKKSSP

[7] = target: the molecule itself; experiment: analytical ultracentrifugation of the individually expressed protein (monomer plus higher aggregates seen)
Protocol: To check the oligomeric status of the purified designed enzymes, their size profiles was measured by analytical ultracentrifugation (FIG. 6). In the case of individually-expressed A1, A2, B3 and B4 proteins, the appearance of the expected monomeric enzyme was observed. However, higher molecular weight aggregates were also detected, including trimers and tetramers (FIG. 6B; only KTG-A2 and QAN-B3 are shown, although similar results were obtained with the other designs). Therefore the designed enzymes were indeed unable to homodimerise, and this may have affected their stability and aggregation properties during purification.

[8] = target: T7, QAN-B3 (QAN with K7E, F54G, L58M, K96E), His tag removed, co-expressed from pCDFDuet1
T7 chain: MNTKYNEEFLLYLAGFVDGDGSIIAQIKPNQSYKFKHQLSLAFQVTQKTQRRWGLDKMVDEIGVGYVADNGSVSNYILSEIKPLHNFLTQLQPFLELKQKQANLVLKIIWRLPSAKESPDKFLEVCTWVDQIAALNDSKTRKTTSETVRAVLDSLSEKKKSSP

[9] = target: T8, KTG-B3 (KTG with the B3 interface: K7E, F54G, L58M, K96E)
T8 chain: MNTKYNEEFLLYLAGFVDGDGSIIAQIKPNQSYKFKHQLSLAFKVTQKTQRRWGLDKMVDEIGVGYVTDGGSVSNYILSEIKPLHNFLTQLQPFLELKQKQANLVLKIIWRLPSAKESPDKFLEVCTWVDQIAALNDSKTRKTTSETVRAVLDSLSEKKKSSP

B1: D137R RAG1.10.3 cutter (M3 D137R) (protein)
chain: MNTKYNKEFLLYLAGFVDGDGSIIAQINPNQSSKFKHRLRLAFYVTQKTQRRWFLDKLVDEIGVGYVRDSGSVSQYVLSEIKPLHNFLTQLQPFLKLKQKQANLVLKIIWRLPSAKESPDKFLEVCTWVDQIAALNRSKTRKTTSETVRAVLDSLSEKKKSSP
**Q.** For B1, which “cleavage of the palindromic RAG1.10.3 target, direct repeat recombination (LacZ) assay in yeast” value is on record?
**A.** The value was “no cleavage of the RAG1.10.2 and RAG1.10.3 targets was visible”.

B2: M2 K7E E61R (protein)
chain: MNTKYNEEFLLYLAGFVDGDGSIIAQIKPRQSNKFKHQLSLAFAVTQKTQRRWFLDKLVDRIGVGYVYDSGSVSDYRLSEIKPLHNFLTQLQPFLKLKQKQANLVLKIIWRLPSAKESPDKFLEVCTWVDQIAALNDSKTRKTTSETVRAVLDSLSEKKKSSP
**Q.** For B2, which “cleavage of the RAG1.10 target, yeast screening assay (OH1)” value [1] is on record?
**A.** The value was “They have a strong cleavage activity toward the RAG1.10 target equivalent to the M2/M3 heterodimer activity, while they display almost non detectable homodimeric activities”.

B3: D137R RAG1.10.2 cutter (M2 D137R) (protein)
chain: MNTKYNKEFLLYLAGFVDGDGSIIAQIKPRQSNKFKHQLSLAFAVTQKTQRRWFLDKLVDEIGVGYVYDSGSVSDYRLSEIKPLHNFLTQLQPFLKLKQKQANLVLKIIWRLPSAKESPDKFLEVCTWVDQIAALNRSKTRKTTSETVRAVLDSLSEKKKSSP
**Q.** With B3 as the protein, how does the “cleavage of the RAG1.10 target, direct repeat recombination (LacZ) assay in yeast” value [2] read?
**A.** The value was “leads also to the formation of an obligatory heterodimer, which is yet less active than the precedent one on the RAG1.10 target”.

B4: M2 E8K K96E (protein)
chain: MNTKYNKKFLLYLAGFVDGDGSIIAQIKPRQSNKFKHQLSLAFAVTQKTQRRWFLDKLVDEIGVGYVYDSGSVSDYRLSEIKPLHNFLTQLQPFLELKQKQANLVLKIIWRLPSAKESPDKFLEVCTWVDQIAALNDSKTRKTTSETVRAVLDSLSEKKKSSP
**Q.** Which “cleavage of the RAG1.10 target, yeast screening assay (OH4)” value [3] does the source give for B4 here?
**A.** The value was “They have a strong cleavage activity toward the RAG1.10 target equivalent to the M2/M3 heterodimer activity, while they display almost non detectable homodimeric activities”.

B5: M2 E8K E61R (protein)
chain: MNTKYNKKFLLYLAGFVDGDGSIIAQIKPRQSNKFKHQLSLAFAVTQKTQRRWFLDKLVDRIGVGYVYDSGSVSDYRLSEIKPLHNFLTQLQPFLKLKQKQANLVLKIIWRLPSAKESPDKFLEVCTWVDQIAALNDSKTRKTTSETVRAVLDSLSEKKKSSP
**Q.** Which “cleavage of the RAG1.10 target, yeast screening assay (OH2)” value [4] does the source give for B5 here?
**A.** Its value is “They have a strong cleavage activity toward the RAG1.10 target equivalent to the M2/M3 heterodimer activity, while they display almost non detectable homodimeric activities”.

B6: R51D RAG1.10.2 cutter (M2 R51D) (protein)
chain: MNTKYNKEFLLYLAGFVDGDGSIIAQIKPRQSNKFKHQLSLAFAVTQKTQDRWFLDKLVDEIGVGYVYDSGSVSDYRLSEIKPLHNFLTQLQPFLKLKQKQANLVLKIIWRLPSAKESPDKFLEVCTWVDQIAALNDSKTRKTTSETVRAVLDSLSEKKKSSP
**Q.** Which “cleavage of the RAG1.10 target, direct repeat recombination (LacZ) assay in yeast” value [5] does the source give for B6 here?
**A.** The value was “resulted in an efficient cleavage of the RAG1.10 target while no cleavage of the RAG1.10.2 and RAG1.10.3 targets was visible”.

**Q.** And the “cleavage of the palindromic RAG1.10.2 target, direct repeat recombination (LacZ) assay in yeast” value?
**A.** Its value is “no cleavage of the RAG1.10.2 and RAG1.10.3 targets was visible”.

B7: M2 K7E K96E (protein)
chain: MNTKYNEEFLLYLAGFVDGDGSIIAQIKPRQSNKFKHQLSLAFAVTQKTQRRWFLDKLVDEIGVGYVYDSGSVSDYRLSEIKPLHNFLTQLQPFLELKQKQANLVLKIIWRLPSAKESPDKFLEVCTWVDQIAALNDSKTRKTTSETVRAVLDSLSEKKKSSP
**Q.** With B7 as the protein, how does the “cleavage of the RAG1.10 target, yeast screening assay (OH3)” value [6] read?
**A.** The value was “They have a strong cleavage activity toward the RAG1.10 target equivalent to the M2/M3 heterodimer activity, while they display almost non detectable homodimeric activities”.

B8: QAN-B4 (QAN with the B4 interface: B3 mutations K7E, F54G, L58M, K96E plus Glycine at position 97) (enzyme)
chain: MANTKYNEEFLLYLAGFVDGDGSIIAQIKPNQSYKFKHQLSLTFQVTQKTQRRWGLDKMVDEIGVGYVADNGSVSNYILSEIKPLHNFLTQLQPFLEGKQKQANLVLKIIEQLPSAKESPDKFLEVCTWVDQIAALNDSKTRKTTSETVRAVLDSLSEKKKSSPAAALEHHHHHH
notes: Purified by His tag when expressed alone
**Q.** Does B8 bind [7]?
**A.** Result: no binding

B9: KTG-A2 (KTG with K7R, E8R, F54W, E61R, K96R, L97F) (enzyme)
chain: MNTKYNRRFLLYLAGFVDGDGSIIAQIKPNQSYKFKHQLSLAFKVTQKTQRRWWLDKLVDRIGVGYVTDGGSVSNYILSEIKPLHNFLTQLQPFLRFKQKQANLVLKIIWRLPSAKESPDKFLEVCTWVDQIAALNDSKTRKTTSETVRAVLDSLSEKKKSSP
notes: Designed monomer; Expressed with a His tag from pET-series plasmid pCLS1211
**Q.** For B9, which “in vitro cleavage of linearized plasmid DNA targets (agarose gel)” value [8] is on record?
**A.** Its value is “clear specific cleavage of the heterodimer DNA target (gtt/agg) and barely of the homodimeric targets (cct/agg and gtt/aac; FIG. 7A) was observed”.

**Q.** Does B9 bind [7]?
**A.** Result: no binding

B10: QAN-A1 (QAN with the A1 interface: K7R, E8R, E61R, K96R, L97F; Phe kept at position 54) (enzyme)
chain: MNTKYNRRFLLYLAGFVDGDGSIIAQIKPNQSYKFKHQLSLAFQVTQKTQRRWFLDKLVDRIGVGYVADNGSVSNYILSEIKPLHNFLTQLQPFLRFKQKQANLVLKIIWRLPSAKESPDKFLEVCTWVDQIAALNDSKTRKTTSETVRAVLDSLSEKKKSSP
notes: as for B8
**Q.** For B10, which “in vitro cleavage of linearized plasmid DNA targets (agarose gel)” value [9] is on record?
**A.** Its value is “specific cleavage of the heterodimer, but at reduced level compared to the KTG-A2/QAN-B3 combination”.

**Q.** Does B10 bind [7]?
**A.** Result: no binding

B11: KTG-B3 (KTG with the B3 interface: K7E, F54G, L58M, K96E) (enzyme)
chain: MNTKYNEEFLLYLAGFVDGDGSIIAQIKPNQSYKFKHQLSLAFKVTQKTQRRWGLDKMVDEIGVGYVTDGGSVSNYILSEIKPLHNFLTQLQPFLELKQKQANLVLKIIWRLPSAKESPDKFLEVCTWVDQIAALNDSKTRKTTSETVRAVLDSLSEKKKSSP
notes: as for B8
**Q.** Does B11 bind [7]?
**A.** Result: no binding

B12: QAN-B3 (QAN with K7E, F54G, L58M, K96E), individually expressed and purified (enzyme)
chain: MNTKYNEEFLLYLAGFVDGDGSIIAQIKPNQSYKFKHQLSLAFQVTQKTQRRWGLDKMVDEIGVGYVADNGSVSNYILSEIKPLHNFLTQLQPFLELKQKQANLVLKIIWRLPSAKESPDKFLEVCTWVDQIAALNDSKTRKTTSETVRAVLDSLSEKKKSSP
notes: Designed monomer; His-tagged form from pET-series plasmid pCLS1214, purified on a nickel column
**Q.** Does B12 bind [7]?
**A.** Result: no binding

Source: patent US20100167357A1 (CELLECTIS, published 2010)
